Assay results taken from paper PMC3420917, “A Combinatorial Amino Acid Code for RNA Recognition by Pentatricopeptide Repeat Proteins” (PLoS Genetics, 2012).
Substitutions are numbered along the chain they refer to.

Columns and labels:
PPR10 TD variant [1] = target: T1, PPR10 TD variant (maize, UniProt B8Y6I0 96-786, N284T;N319T;N349D); assay: EMSA; EMSA: radiolabeled RNA 15 pM, protein 0, 5, 10, 20 nM; binding buffer and temperature by reference [12]; protein stock in 400 mM NaCl, 50 mM Tris-HCl pH 7.5, 5; conditions: protein: recombinant; tags: MBP fusion removed by TEV cleavage; label: radiolabeled; single-stranded
T1 sequence: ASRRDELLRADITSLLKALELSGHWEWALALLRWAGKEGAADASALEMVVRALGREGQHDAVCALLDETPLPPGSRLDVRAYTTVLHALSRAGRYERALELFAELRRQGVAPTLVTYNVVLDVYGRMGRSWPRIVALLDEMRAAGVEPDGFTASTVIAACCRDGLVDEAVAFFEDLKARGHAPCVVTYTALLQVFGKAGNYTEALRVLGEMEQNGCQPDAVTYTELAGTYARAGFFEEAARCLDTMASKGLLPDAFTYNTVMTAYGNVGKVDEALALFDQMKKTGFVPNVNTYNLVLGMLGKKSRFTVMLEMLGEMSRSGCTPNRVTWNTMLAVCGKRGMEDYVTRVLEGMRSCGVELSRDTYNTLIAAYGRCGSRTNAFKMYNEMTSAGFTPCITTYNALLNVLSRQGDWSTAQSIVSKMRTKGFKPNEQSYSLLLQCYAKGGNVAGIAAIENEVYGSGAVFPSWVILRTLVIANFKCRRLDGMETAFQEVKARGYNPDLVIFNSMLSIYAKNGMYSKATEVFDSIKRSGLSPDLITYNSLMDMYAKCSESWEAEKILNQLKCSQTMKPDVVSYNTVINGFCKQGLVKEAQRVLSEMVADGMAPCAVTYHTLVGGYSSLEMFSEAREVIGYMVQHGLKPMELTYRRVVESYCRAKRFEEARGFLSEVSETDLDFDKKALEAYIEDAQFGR

PPR10 TN variant [2] = target: T2, PPR10 TN variant (maize, UniProt B8Y6I0 96-786, N284T;D314N;N319T); assay: as above; conditions: protein: recombinant; tags: MBP fusion removed by TEV cleavage; label: radiolabeled; single-stranded
T2 sequence: T1 sequence with D219N, D254N

rPPR10 wild-type = target: T3, rPPR10 wild-type (maize, UniProt B8Y6I0 96-786); assay: as above; conditions: protein: recombinant; tags: MBP fusion removed by TEV cleavage; label: radiolabeled; single-stranded
T3 sequence: T1 sequence with T189N, T224N, D254N

PPR10 TD variant [3] = target: T1, PPR10 TD variant; assay: EMSA; high affinity; EMSA: radiolabeled RNA 15 pM, protein 0, 5, 10, 20 nM; binding buffer and temperature by reference [12]; protein stock in 400 mM NaCl, 50 mM Tris-HCl pH 7.5, 5; conditions: protein: recombinant; tags: MBP fusion removed by TEV cleavage; label: radiolabeled; single-stranded
[4] = target: the molecule itself; assay: AUC; sedimentation velocity; rPPR10 alone at 3, 6 and 12 µM; 20°C, 50,000 rpm, interference optics; 250 mM NaCl, 50 mM Tris-HCl pH 7.5, 5 mM ß-mercaptoethanol; monomer to dimer
PPR10 TN variant [5] = target: T2, PPR10 TN variant; assay: EMSA; high affinity; EMSA: radiolabeled RNA 15 pM, protein 0, 5, 10, 20 nM; binding buffer and temperature by reference [12]; protein stock in 400 mM NaCl, 50 mM Tris-HCl pH 7.5, 5; conditions: protein: recombinant; tags: MBP fusion removed by TEV cleavage; label: radiolabeled; single-stranded

B1: wild-type RNA (EMSA) (ssRNA)
RNA: GUAUCCUUAACCAUUUC
PPR10 TD variant [1]
  binding result: no binding
PPR10 TN variant [2]
  binding result: no binding

B2: GG RNA (ssRNA)
RNA: GUAGGCUUAACCAUUUC
rPPR10 wild-type
  binding result: no binding
PPR10 TD variant [3]
  binding result: binds

B3: Recombinant PPR10 (natural protein, maize, UniProt B8Y6I0 96-786, looked up)
chain: T1 sequence with T189N, T224N, D254N
notes: PPR10, maize chloroplast pentatricopeptide repeat protein (19 PPR motifs); mature PPR10 lacking the plastid targeting peptide; monomeric molecular weight of rPPR10 printed as 82.6 kDa; also called rPPR10
[4]
  stoichiometry N: 2

B4: AA RNA (ssRNA)
RNA: GUAAACUUAACCAUUUC
rPPR10 wild-type
  binding result: no binding
PPR10 TN variant [5]
  binding result: binds
